Molecular target: sugar chain-deficient cynomolgus CD27 (C-terminal His tag) expressed on Lec8 cells (cynomolgus)
Assay: flow cytometry (FCM) on cynomolgus CD27/Lec8 cells (Example 11(5)) [A]

- EC50 (read off the curve): 0.2 µg/mL
B1: anti-sugar chain-deficient CD27 chimeric antibody chimeric KM4030 (antibody, human IgG1, V domains shown)
VH: EVQLVESGGGLVQPGRSLKLSCVASGFTFNNYWMTWIRQAPGKGLEWIASITNSGGSTYYPDSVKGRFTISRDNAKGTLYLQMNSLRSEDTATYYCTRDVNTYYGYNALFDYWGQGVMVTVSS
VL: DIQMTQSPSVLSASVGDRVTLNCKASQNINEYLNWYQQKLGEAPKLLIYNTNNLQTGIPSRFSGSGSGTDFTLTISSLQPEDFAAYFCFQHNSWPYTFGAGTKLELK

— US20120093805A1
